Source: patent US20210230273A1 (Alexion, published 2021)

Key:
[1] = biological target: T1, cell surface CD200 (human, UniProt P41217 31-278); test: whole-blood CD200 receptor occupancy by flow cytometry, T cells (CD3+); unlabelled antibody incubated overnight, free CD200 against total CD200 (1B2-AF647)
T1 construct: whole, on cells; also called CD200 on CD200 expressing Raji cells; CD200+ Raji cells
T1 sequence (looked up): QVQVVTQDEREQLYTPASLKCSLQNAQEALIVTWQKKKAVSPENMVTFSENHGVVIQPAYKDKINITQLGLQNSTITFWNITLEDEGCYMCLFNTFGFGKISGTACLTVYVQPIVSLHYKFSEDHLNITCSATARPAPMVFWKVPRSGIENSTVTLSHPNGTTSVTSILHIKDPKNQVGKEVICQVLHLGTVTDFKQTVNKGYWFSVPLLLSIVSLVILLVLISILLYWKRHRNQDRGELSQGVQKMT
Experimental: (§1) Whole blood (including sodium heparin as anticoagulant) was added at 250 μL/FACs tube and sealed. Tubes were incubated at 25° C. in a temperature-controlled cabinet overnight to allow therapeutic antibody binding.
(§2) FACS Antibody Staining: Cells were blocked with Fc blocking reagent for 30 min. Red blood cells were lysed with hemolytic buffer; remaining cells were spun 800×g for 5 minutes, and the resulting cell pellet was washed twice with PBS. After final wash, cell pellets were resuspended into 200 μL PBS. Cells were stained with a fixable Live/Dead dye for 20 minutes protected from light, and then neutralized and washed with FACS buffer. After the final wash the cells were resuspended in 100 μL wash with FcR block. Labeled antibody cocktail mixes were prepared CD3-PE/CD19-FITC/Alexa-647 or CD3-PE/CD19-FITC/1B2-647 in blocking buffer as well as appropriate controls (single color and FMO). The appropriate amount of antibody was added and incubated with cells protected from light for 30 minutes at room temperature. […]
(§3) FACS Analysis: Data was acquired on an automated cell analyzer (BD Fortessa) by gating on lymphocytes, and single live cells followed by B cell (CD19+-FITC) and T cells (CD3-PE) populations. […] Percent receptor occupancy was calculated from the MFI (median fluorescence intensity) according to the following formula: […]

[2] = biological target: T1, cell surface CD200; test: whole-blood CD200 receptor occupancy by flow cytometry, B cells (CD19+); unlabelled antibody incubated overnight, free CD200 against total CD200 (1B2-AF647)
Experimental: as §1, §2, §3

[3] = biological target: T1, cell surface CD200; test: flow cytometry, inhibition of labelled CD200R-Fc binding to CD200+ Raji cells; n = 1
Description: Next, the abilities of the newly-engineered anti-CD200 antibodies to antagonize CD200R were compared with that of samalizumab using CD200+ Raji cells. […] Binding of labeled CD200R-Fc was detected by flow cytometry.

- EC50 (read off the curve) [1]: ~4 ng/mL
- EC50 (read off the curve) [2]: ~4 ng/mL
- EC50 [3]: 0.186 nM
B1: TPP-1143 (antibody, human IgG2, kappa, V domains shown)
VH: QVQLVQSGAEVKKPGASVKVSCKASGYSFTDYIILWVRQAPGQRLEWMGHIDPYYGSSNYNLKFKGRVTITRDTSASTAYMELSSLRSEDTAVYYCGRSKRDYFDYWGQGTLVTVSS
VL: DIQMTQSPSSLSASVGDRVTITCKASQDINSYLSWFQQKPGKAPKSLIYRANRLVDGVPSRFSGSGSGTDFTLTISSLQPEDFGTYYCLQYDEFPYTFGQGTKLEIKR
notes: mAb with human G2G4 Fc (effectorless); also called TPP-11143 (as printed once)
